Measurements: paper PMC6349045

Key:
[1] = biological target: T1, NP220 DNA-binding domain (NP220DB) (UniProt Q14966 1240-1478); assay: competition
T1 sequence: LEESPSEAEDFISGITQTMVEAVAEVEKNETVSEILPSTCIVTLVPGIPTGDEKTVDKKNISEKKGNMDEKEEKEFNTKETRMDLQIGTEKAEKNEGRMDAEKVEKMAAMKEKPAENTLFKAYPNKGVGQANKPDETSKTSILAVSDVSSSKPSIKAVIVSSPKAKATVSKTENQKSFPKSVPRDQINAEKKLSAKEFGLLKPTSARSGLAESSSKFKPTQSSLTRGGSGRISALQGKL

[2] = biological target: T1, NP220 DNA-binding domain (NP220DB); assay: EMSA
[3] = biological target: T1, NP220 DNA-binding domain (NP220DB); assay: competition; remark: listed apart in the source

B1: DNA72 (NP220 sites deleted) (dsDNA)
DNA 1: AGGATATCTGTGGTAAGCAGTTCCTGCTCAGGGCCAAGAACAGATGGTATGCGGTCCAGCCCTCAGCAGTTT
DNA 2: AAACTGCTGAGGGCTGGACCGCATACCATCTGTTCTTGGCCCTGAGCAGGAACTGCTTACCACAGATATCCT
Q: Does B1 bind [1]?
A: no binding

B2: Bio-DNA84 (MLV U3 LTR fragment) (dsDNA)
DNA 1: AGGATATCTGTGGTAAGCAGTTCCTGCCCCGGCTCAGGGCCAAGAACAGATGGTCCCCAGATGCGGTCCAGCCCTCAGCAGTTT
DNA 2: AAACTGCTGAGGGCTGGACCGCATCTGGGGACCATCTGTTCTTGGCCCTGAGCCGGGGCAGGAACTGCTTACCACAGATATCCT
Q: Does B2 bind [2]?
A: binds

B3: DNA84 (unlabeled) (dsDNA)
DNA 1: AGGATATCTGTGGTAAGCAGTTCCTGCCCCGGCTCAGGGCCAAGAACAGATGGTCCCCAGATGCGGTCCAGCCCTCAGCAGTTT
DNA 2: AAACTGCTGAGGGCTGGACCGCATCTGGGGACCATCTGTTCTTGGCCCTGAGCCGGGGCAGGAACTGCTTACCACAGATATCCT
Q: Does B3 bind [3]?
A: binds
